One molecule from patent publication US9951373B2, “Oplophorus-derived luciferases, novel coelenterazine substrates, and methods of use” (Promega Corporation, priority 2010, dated 2018) can be followed below.

Test [1] has as its system cAMP response element (CRE). Kind of test: Transcriptional reporter, forward transfection, CRE in HEK293 cells. The test is classed as cell-based, human. Particulars: 3 h; for baseline: 10 nM FSK. Here is the method:
HEK293 cells were plated at 15,000 cells/well in six 96-well tissue culture plates. Cells were grown in 100 μL of DMEM+10% FBS+1× non-essential amino acids (NEAA) and incubated overnight at 37° C. The cells were transiently transfected with either 10 ng or 100 ng plasmid DNA/well of pGL4.29 9B8 opt, pGL4.29 9B8 opt-P, or pGL4.29. Plasmid DNA was mixed with 850 μL of OPTI-MEMO (Invitrogen) and 32.4 μL of FUGENE® HD transfection reagent (Promega Corp.) and incubated at room temperature for 10 min. Eight μL of the transfection/reporter DNA mixture was added to the appropriate wells (2 constructs/plate). Cells were incubated for 4 hrs at 37° C. The medium was replaced with OPTI-MEM®+0.5% dialyzed FBS+1×NEAA+1× sodium pyruvate+1× Penn-Strep and incubated overnight at 37° C.
A lytic reagent containing 100 mM MES pH 6.1, 1 mM CDTA, 150 mM KCl, 35 mM thiourea, 2 mM DTT, 0.25% TERGITOLO NP-9 (v/v), 0.025% MAZUO DF 204, and 20 μM PBI-3939 was added to the cells containing pGL4.29 9B8 opt or pGL4.29 9B8 opt-P and allowed to incubated for 10 min at room temperature (100 μL lytic reagent added to 100 μL cells). ONE-GLO™ assay reagent (Promega Corp.) was added to cells containing pGL4.29 and used according to the manufacturer's protocol (100 μL reagent added to 100 μL cells). Luminescence was measured on a GLOMAX® Luminometer.

For test [2], the system named is antioxidant response element (ARE). Briefly: Transcriptional reporter, reverse transfection, ARE in HEK293 cells. The test is classed as cell-based, human. Particulars: 100 ng DNA, 24 h. Here is the method:
HEK293 cells were trypsinized (T75 flask, 3 mL trypsin) and resuspended in […] (approximately 8.9×10^6 total cells) in medium containing DMEM+10% FBS+1×NEAA. Each transcriptional reporter was prepared for transfection by mixing 1.2 mL OPTI-MEM®, 12 μL transcription reporter DNA (100 ng) and 36 μL FUGENE® HD transfection reagent together and incubated at room temperature for 35 min. Following incubation, 624 μL of the transfection/reporter DNA mixture was added to 12 mL of cell suspension and mixed by inversion. After mixing, 100 μL of the cell/DNA mixture was added to wells of a 96-well plate (2 constructs/plate). The cells were incubated at 37° C. for 22 hrs. Tert-butylhydroquinone (a Nrf2 stabilizer; tBHQ; 1 μM (“baseline”) or 20 μM) or sulphoraphane, (an organosulfer antioxidant known to activate Nrf2; 1 μM (“baseline”) or 20 μM) in OPTI-MEM® was added to each well and incubated at 37° C. for 24 hrs. Cells were lysed with 100 μL lytic reagent as described above for the forward transfection. Luminescence was measured on a GLOMAX® Luminometer.

Test [3] relates to CRE. Briefly: Transcriptional reporter, bulk transfection, CRE in HEK293 cells. The test is classed as cell-based, human. Particulars: HEK293, 10 nM FSK, 4 h. On the procedure: (§1) The transcriptional reporter containing HRE and 9B8 opt-P was used in the bulk transfection of HeLa cells
(§2) HEK293, NIH3T3, or HeLa cells were plated to a single well of a 6-well tissue culture plate the day before transfection at a density of 4.5×10^5 cells/well in 3 mL complete medium (DMEM+10% FBS+1×NEAA+1× sodium pyruvate) for HEK293 cells, 3×10^5 cells/well in 3 mL complete medium (DMEM+10% fetal calf serum (FCS)+1×NEAA+1× sodium pyruvate) for NIH3T3 cells, or 9.9×10^5 cells/well in 3 mL complete medium (DMEM+10% FBS+1×NEAA) for HeLa cells. Cells were grown overnight at 37° C.
(§3) 3,300 ng of reporter plasmid DNA in 155 μL OPTI-MEM® was mixed with 9.9 μL FUGENE® HD transfection reagent, vortexed briefly, and incubated at room temperature for 10 min. The CRE transcriptional reporters were used to transfect HEK293 and NIH3T3 cells. The HRE transcriptional reporters were used to transfect HeLa cells. The reporter mixture was added to cells and mixed by gentle rocking followed by incubation at 37° C. for 6 hrs (HEK293 and NIH3T3) or 3 hrs (HeLa). […]
(§4) FSK (CRE stimulator) or 17-AAG (HRE stimulator; 17-Allylamino-demethoxy geldanamycin) in OPTI-MEM® was added to the cells (10 nM or 10 μM final concentration for FSK; 1 nM or 1 μM final concentration for 17-AAG) and incubated at 37° C. for 4 hrs (FSK) or 6 hrs (17-AAG). […] Luminescence was measured on a GLOMAX® Luminometer.

Test [4] has as its system CRE. Briefly: Transcriptional reporter, bulk transfection, CRE in NIH3T3 cells. Particulars: NIH3T3, 10 nM FSK, 4 h. Type of test: cell-based. Here is the method:
as §1, §2, §3, §4

Test [5] deals with heat shock response element (HRE). Briefly: Transcriptional reporter, bulk transfection, HRE in HeLa cells. Particulars: 6 h. Type of test: cell-based. Here is the method:
as §1, §2, §3, §4

B1: 9B8 opt-P: 9B8 opt further comprising the PEST protein degradation sequence (SEQ ID NO: 65) (protein)
chain: MVFTLEDFVGDWRQTAGYNLDQVLEQGGLSSLFQKLGVSVTPIQKIVLSGENGLKIDIHVIIPYEGLSGYQMGQIEKIFKVVYPVDDHHFKVILHYGTLVIDGVTPNMIDYFGRPYEGIAVFDGKKITVTGTLWNGNKIIDERLINPDGSLLFRVTINGVTGWRLCERILANSHGFPPEVEEQAAGTLPMSCAQESGMDRHPAACASARINV
modifications: PEST degradation sequence
B1: the baseline in test [1] (10 ng DNA) is reported as 11179 RLU; in test [1] (100 ng DNA) it was 122,071 RLU; in test [2] (1 μM sulphoraphane), 258,406 RLU; in test [2] (1 μM tBHQ) it was 317,238 RLU; with CRE [3], 3,960,000 RLU; with CRE [4], 410,461 RLU. The baseline in test [5] is 278,118 RLU. Also, the entries for the “RLU (10 µM FSK)” value in test [1] (10 ng DNA) and in test [1] (100 ng DNA) were 1,353,459 RLU and 20,544,753 RLU, respectively. For the same molecule, the Response in test [1] (10 ng DNA) was 121; in test [1] (100 ng DNA), 168. In addition, in test [2], the “RLU (20 μM sulphoraphane)” value was 3,940,000 RLU. In addition, in test [2], the “RLU (20 μM tBHQ)” value was 8,460,000 RLU.
